Source: patent US20150023943, “REF Nuclease for Site-Specific REF-Mediated DNA Cleavage” (Wisconsin Alumni Research Foundation, published 2015)

T1: P1 ΔN76 Ref (Bacteriophage P1, UniProt P35926 SEQ:77-186)
T1 chain: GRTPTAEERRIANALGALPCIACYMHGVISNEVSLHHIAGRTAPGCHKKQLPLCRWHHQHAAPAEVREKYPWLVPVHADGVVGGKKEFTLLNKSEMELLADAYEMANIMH

T2: P1 Ref (wild type) (Bacteriophage P1, UniProt P35926 SEQ:1-186)
T2 sequence: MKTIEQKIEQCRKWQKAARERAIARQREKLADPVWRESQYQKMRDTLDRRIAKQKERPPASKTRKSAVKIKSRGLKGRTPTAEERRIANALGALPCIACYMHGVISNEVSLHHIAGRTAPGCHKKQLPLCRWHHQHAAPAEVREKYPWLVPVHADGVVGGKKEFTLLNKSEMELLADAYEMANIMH

T3: φW39 ΔN47 Ref (Bacteriophage phi W39)
T3 chain: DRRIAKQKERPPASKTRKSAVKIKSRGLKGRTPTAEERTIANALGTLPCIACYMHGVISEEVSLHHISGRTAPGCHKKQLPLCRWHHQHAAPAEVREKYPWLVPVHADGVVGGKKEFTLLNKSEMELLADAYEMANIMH

T4: φW39 ΔN21 Ref (Bacteriophage phi W39)
T4 chain: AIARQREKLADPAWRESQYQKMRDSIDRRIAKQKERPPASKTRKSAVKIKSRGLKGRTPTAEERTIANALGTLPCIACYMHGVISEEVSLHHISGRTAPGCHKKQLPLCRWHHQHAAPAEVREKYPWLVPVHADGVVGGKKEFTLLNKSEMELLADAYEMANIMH

T5: φW39 ΔN74 Ref (Bacteriophage phi W39)
T5 chain: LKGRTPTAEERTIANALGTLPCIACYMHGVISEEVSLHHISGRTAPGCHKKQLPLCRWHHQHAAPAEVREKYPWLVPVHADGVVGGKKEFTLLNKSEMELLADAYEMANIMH

B1: AJM25 71mer ssDNA (ssDNA)
DNA: CAGAAGTAAGTTGGCCGCAGTGTTATCACTCATGGTTATGGCAGCACTGCATAATTCTCTTACTGTCATGC
B2: AJM25/AJG52 71 bp dsDNA (dsDNA)
DNA 1: B1 DNA
DNA 2: GCATGACAGTAAGAGAATTATGCAGTGCTGCCATAACCATGAGTGATAACACTGCGGCCAACTTACTTCTG

How the values were obtained:
P1 ΔN76 Ref [1] = biological target: T1, P1 ΔN76 Ref; experiment: FP; no binding detected up to 10,000 nM; consistent with earlier EMSA; conditions: label: 5'-6FAM
Procedure: (§1) Fluorescence polarization DNA binding assay—Ref (or a variant) at 0.5-10,000 nM was incubated with 2 nM AJM25 71mer ssDNA or AJM25 annealed with AJG52 71mer to make dsDNA substrate in 25 mM Tris-acetate (pH 8.5), 3 mM potassium glutamate, 15 mM magnesium acetate, and 5% w/v glycerol at room temperature for 15 minutes. Fluorescence anisotropy (FA) was measured at 25° C., using a Tecan Infinite M1000 instrument with 470-nm excitation and 535-nm emission wavelengths for at least three replicates; the average FA values were plotted with one standard deviation of the mean shown as error. Prism software was used to convert FA values to the fraction of DNA bound and apparent dissociation constants were the Ref concentration (or variant) needed for 50% binding saturation.
(§2) Fluorescence polarization assays with labeled DNA substrates (ssDNA and dsDNA) were carried out to determine dissociation constants of each of the N-terminal domain truncations. […] For the P1 ΔN76 Ref protein, this is consistent with EMSA data from the earlier study (Gruenig et al 2011, supra). […] This indicates the presence of a critical sequence domain between residues 47-74.

P1 Ref (wild type) [2] = biological target: T2, P1 Ref (wild type); experiment: FP; apparent Kd; 14±1; 25 mM Tris-acetate pH 8.5, 15 mM Mg acetate, 3 mM K glutamate, 25 C; conditions: label: 5'-6FAM
Procedure: as §1, §2

φW39 ΔN47 Ref [3] = biological target: T3, φW39 ΔN47 Ref; experiment: FP; apparent Kd; 113±7; 15 mM Mg acetate, pH 8.5, 25 C; conditions: tags: expressed from pET21A with NdeI start Met; label: 5'-6FAM
Procedure: as §1, §2

φW39 ΔN21 Ref [4] = biological target: T4, φW39 ΔN21 Ref; experiment: FP; apparent Kd; 119±9; 15 mM Mg acetate, pH 8.5, 25 C; conditions: tags: expressed from pET21A with NdeI start Met; label: 5'-6FAM
Procedure: as §1, §2

φW39 ΔN74 Ref [5] = biological target: T5, φW39 ΔN74 Ref; experiment: FP; no binding detected up to 10,000 nM; conditions: tags: expressed from pET21A with NdeI start Met; label: 5'-6FAM
Procedure: as §1, §2

φW39 ΔN21 Ref [6] = biological target: T4, φW39 ΔN21 Ref; experiment: FP; apparent Kd; 56±3; 15 mM Mg acetate, pH 8.5, 25 C; conditions: tags: expressed from pET21A with NdeI start Met; label: 5'-6FAM on AJM25
Procedure: as §1
(§3) The truncations were also assayed with 71mer dsDNA substrate. The dsDNA substrate was made by annealing the labeled 71mer oligonucleotide (AJM25) with the complementary 71mer oligonucleotide (AJG52). […] Instead, an increase in KD is seen as more of the N-terminus is truncated (FIG. 2B, 2C). Also, there is an apparent cooperativity when binding to dsDNA, and this cooperativity decreases as the N-terminus is truncated (FIG. 2C). This provides evidence that the N-terminal region of Ref is necessary for DNA binding. Specifically, the amino acids between position 47 and 74 are particularly important.

P1 Ref (wild type) [7] = biological target: T2, P1 Ref (wild type); experiment: FP; apparent Kd; 14±1; cooperative; 15 mM Mg acetate, pH 8.5, 25 C; conditions: label: 5'-6FAM on AJM25
Procedure: as §1, §3

P1 ΔN76 Ref [8] = biological target: T1, P1 ΔN76 Ref; experiment: FP; no observable binding; conditions: label: 5'-6FAM on AJM25
Procedure: (§4) The truncations were also assayed with a 71mer dsDNA substrate made by annealing the labeled 71mer oligonucleotide (AJM25) with the complementary 71mer oligonucleotide (AJG52). […] As the second motif and part of the third motif were removed in the φW39 ΔN59 and φW39 ΔN66, dsDNA binding was further reduced. As with the ssDNA, φW39 ΔN74 and P1 ΔN76 Ref had no observable dsDNA binding. Overall we provide evidence that the N-terminal region of Ref is necessary for DNA binding, and the putative charge motifs may contribute collectively to that function.
(§5) Ref proteins at 0.5-10,000 nM were incubated with 2 nM AJM25 71mer ssDNA or AJM25 annealed with AJG52 71mer to make a linear 71 bp dsDNA substrate in 25 mM Tris-acetate (pH 8.5), 3 mM potassium glutamate, 15 mM magnesium acetate, and 5% w/v glycerol at room temperature for 15 minutes. Fluorescence anisotropy (FA) was measured at 25° C., using a Tecan Infinite M1000 instrument with 470-nm excitation and 535-nm emission wavelengths for at least three replicates. The average FA values were plotted with one standard deviation of the mean shown as error. Prism software was used to convert FA values to the percent of DNA bound and apparent dissociation constants were determined using one-site, specific binding with Hill coefficient.

φW39 ΔN74 Ref [9] = biological target: T5, φW39 ΔN74 Ref; experiment: FP; no observable binding; conditions: tags: expressed from pET21A with NdeI start Met; label: 5'-6FAM on AJM25
Procedure: as §4, §5

φW39 ΔN47 Ref [10] = biological target: T3, φW39 ΔN47 Ref; experiment: FP; apparent Kd; 143±12; 15 mM Mg acetate, pH 8.5, 25 C; conditions: tags: expressed from pET21A with NdeI start Met; label: 5'-6FAM on AJM25
Procedure: as §1, §3

Row | Binder | binding result (P1 ΔN76 Ref [1]) | Kd (P1 Ref (wild type) [2]) | Kd (φW39 ΔN47 Ref [3]) | Kd (φW39 ΔN21 Ref [4]) | binding result (φW39 ΔN74 Ref [5]) | Kd (φW39 ΔN21 Ref [6]) | Kd (P1 Ref (wild type) [7]) | binding result (P1 ΔN76 Ref [8]) | binding result (φW39 ΔN74 Ref [9]) | Kd (φW39 ΔN47 Ref [10])
1 | B1 | no binding | 14.4 nM | 113 nM | 119 nM | no binding | – | – | – | – | –
2 | B2 | – | – | – | – | – | 56.1 nM | 13.5 nM | no binding | no binding | 142 nM
